Measured values as given in patent US20240317834A1, “COMPOSITIONS AND METHODS FOR NEUROLOGICAL DISEASES” (CODA BIOTHERAPEUTICS, INC., priority 2020, published 2024).

Columns and labels:
Lenti-X 293T cells = assay: YFP fluorescence quenching anion reporter plate reader assay of engineered receptors stimulated with acetylcholine or a non-native ligand; assay type: cell-based
Method in brief: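 Lenti-X 293T cells carrying a YFP anion reporter were transiently transfected with channel DNA and assayed the next day in HEPES-buffered ECS at pH 7.2. Ligand (acetylcholine or non-native ligand) was added in NaI-substituted ECS. Percent quench was the mean of the last 10 s relative to the 15 s pre-addition baseline.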

rat DRG neurons = assay: Whole cell manual patch clamp electrophysiology, ligand-induced currents and EC50 in rat DRG neurons; assay type: cell-based
Protocol: Using whole cell manual patch clamp electrophysiology in HEK293 cells, rat DRG neurons and rat hippocampal neurons, the EC50 of the various engineered receptors disclosed herein to Ach and non-native ligands was measured using the Hill equation with peak current measurements from escalating doses of ligand. The rheobase shift was also measured in rat DRG neurons, which reflects the efficacy of the receptors. To calculate the rheobase, first, the amount of current that can produce an action potential was determined. Then the ligand was added, followed by a step wise increase in the current injected up to 700 pA.
For manual patch clamp experiments, Cells plated on coverslips were visualized at 10× and 40× on an inverted fluorescence microscope (Olympus). Recordings were made with an Axopatch 200B amplifier and Digidata 1550B (Molecular Devices) at RT using 3-6 MOhm glass patch electrodes (Sutter, BF150-86-10). Unless otherwise stated, recordings were made in extracellular solution (ECS) containing: 140 mM sodium chloride, 4 mM potassium chloride, 1 mM magnesium chloride, 2 mM calcium chloride, 10 mM HEPES, and 10 mM D-(+)-glucose (pH=7.3 with sodium hydroxide, osmolarity=305−315 mOsm). An 8-line reservoir (AutoMate Scientific) in combination with an 8-channel zero-dead-volume perfusion pencil (AutoMate Scientific) was used for perfusion. Data was acquired using pClamp software (Molecular Devices). Traces were either analyzed in Clampfit (Molecular Devices) or using custom Python code. Plotting and statistics were performed in GraphPad Prism.
For dose-response, ligand-induced currents were recorded in voltage clamp mode. For HEK cell experiments, recordings took place in the normal ECS with a cesium-based internal solution containing: 140 mM cesium chloride, 5 mM potassium fluoride, 2 mM Calcium chloride, 2 mM magnesium chloride, 10 mM HEPES, and 10 mM EGTA (pH=7.2 with cesium hydroxide, osmolarity=290-295 mOsm). […]

B1: CODA806: engineered chimeric LGIC receptor, Y115D, L131Q in SEQ ID NO: 33 (protein)
chain: MRCSPGGVWLALAASLLHVSLQGEFQRKLYKELVKNYNPLERPVANDSQPLTVYFSLSLLQIMDVDEKNQVLTTNIWLQMSWTDHYLQWNVSEYPGVKTVRFPDGQIWKPDILLDNSADERFDATFHTNVQVNSSGHCQYLPPGIFKSSCPMDLKNFPMDVQTCKLKFGSWSYGGWSLDLQMQEADISGYIPNGEWDLVGIPGKRSERFYECCKEPYPDVTFTVTMRRRMGYYLIQMYIPSLLIVILSWISFWINMDAAPARVGLGITTVLTMTTQSSGSRASLPKVSYVKAIDIWMAVCLLFVFSALLEYAAVNFVSRQHKELLRFRRKRRHHKSPMLNLFQEDEAGEGRFNFSAYGMGPACLQAKDGISVKGANNSNTTNPPPAPSKSPEEMRKLFIQRAKKIDKISRIGFPMAFLIFNMFYWIIYKIVRREDVHNQ
modifications: synthetic sequence of chimeric LGIC
- YFP fluorescence quenching using CNL001 (Lenti-X 293T cells; 1 nM CNL001, first column): 6.587%
- YFP fluorescence quenching using CNL001 (Lenti-X 293T cells; 1 nM CNL001, second column): −5.179%
- YFP fluorescence quenching using TC-5619/Bradanicline (Lenti-X 293T cells; 1 nM brd): 0.92%
- YFP fluorescence quenching using TC-5619/Bradanicline (Lenti-X 293T cells; 3 nM brd): −4.65%
- YFP fluorescence quenching using CNL001 (Lenti-X 293T cells; 10 nM CNL001, first column): −2.366%
- YFP fluorescence quenching using CNL001 (Lenti-X 293T cells; 10 nM CNL001, second column): −1.272%
- YFP fluorescence quenching using TC-5619/Bradanicline (Lenti-X 293T cells; 10 nM brd): 0.38%
- YFP fluorescence quenching using TC-5619/Bradanicline (Lenti-X 293T cells; 30 nM brd): −8.96%
- YFP fluorescence quenching using Facinicline (Lenti-X 293T cells; 30 nM fac): 41.32
- YFP fluorescence quenching using CNL001 (Lenti-X 293T cells; 50 nM CNL001, first column): 2.763%
- YFP fluorescence quenching using CNL001 (Lenti-X 293T cells; 50 nM CNL001, second column): 1.995%
- YFP fluorescence quenching using ABT-126 (Lenti-X 293T cells; 50 nM abt): −1.81%
- YFP fluorescence quenching using CNL001 (Lenti-X 293T cells; 100 nM CNL001, first column): 3.091%
- YFP fluorescence quenching using CNL001 (Lenti-X 293T cells; 100 nM CNL001, second column): 1.45%
- YFP fluorescence quenching using CNL002 (Lenti-X 293T cells; 100 nM CNL002): −10.03%
- YFP fluorescence quenching using ABT-126 (Lenti-X 293T cells; 100 nM abt): −2.61%
- YFP fluorescence quenching using AZD-0328 (Lenti-X 293T cells; 100 nM azd0328): 12.15%
- YFP fluorescence quenching using TC-5619/Bradanicline (Lenti-X 293T cells; 100 nM brd): 12.18%
- YFP fluorescence quenching using Facinicline (Lenti-X 293T cells; 100 nM fac): 59.51
- YFP fluorescence quenching using ABT-126 (Lenti-X 293T cells; 300 nM abt): −3.78%
- YFP fluorescence quenching using AZD-0328 (Lenti-X 293T cells; 300 nM azd0328): 30.92%
- YFP fluorescence quenching using TC-5619/Bradanicline (Lenti-X 293T cells; 300 nM brd): −0.3%
- YFP fluorescence quenching using Facinicline (Lenti-X 293T cells; 300 nM fac): 74.86
- YFP fluorescence quenching using CNL001 (Lenti-X 293T cells; 1 uM CNL001, first column): 7.331%
- YFP fluorescence quenching using CNL001 (Lenti-X 293T cells; 1 uM CNL001, second column): 9.103%
- YFP fluorescence quenching using CNL002 (Lenti-X 293T cells; 1 uM CNL002): −3.33%
- YFP fluorescence quenching using ABT-126 (Lenti-X 293T cells; 1 uM abt): −2.6%
- YFP fluorescence quenching using TC-5619/Bradanicline (Lenti-X 293T cells; 1 uM brd): 45.47%
- YFP fluorescence quenching using TC-6987 (Lenti-X 293T cells; 1 uM tc6987): 38.83
- YFP fluorescence quenching using Facinicline (Lenti-X 293T cells; 10 uM fac): 78.53
- YFP fluorescence quenching using TC-6987 (Lenti-X 293T cells; 10 uM tc6987): 31.59
- YFP fluorescence quenching using CNL002 (Lenti-X 293T cells; 30 uM CNL002): 6.96%
- YFP fluorescence quenching using AZD-0328 (Lenti-X 293T cells; 30 uM azd0328): 68.65%
- YFP fluorescence quenching using Facinicline (Lenti-X 293T cells; 30 uM fac): 84.45
- YFP fluorescence quenching using TC-6987 (Lenti-X 293T cells; 500 uM tc6987): 29.83
- percent quench of YFP fluorescence, 10 uM ach (Lenti-X 293T cells; acetylcholine 10 uM): 9.47%
- percent quench of YFP fluorescence, 100 uM ach (Lenti-X 293T cells; acetylcholine 100 uM): 6.12%
- percent quench of YFP fluorescence, 1 mM ach (Lenti-X 293T cells; acetylcholine 1 mM): −1.56%
- percent quench of YFP fluorescence, 3 mM ach (Lenti-X 293T cells; acetylcholine 3 mM): 17.57%
- chloride current on application of RG-3487 (SA-2) (rat DRG neurons; cultured adult rat DRG neurons expressing the receptor, not observed in non-transduced cells): generated chloride current in a dose dependent manner
- sensitivity to RG-3487 compared with wildtype nAchRa7 receptor (rat DRG neurons; cultured rat DRG sensory neurons): way more sensitive
- sensitivity to acetylcholine (rat DRG neurons; cultured rat DRG sensory neurons, compared with wildtype nAchRa7 receptor): essentially insensitive
